# Assay results: publication PMC8051604
# What was measured:
# [1] = molecular target: CitCHS1 (citrus chalcone synthase 1), pGADT7 fusion (Citrus reticulata cv. Suavissima (Ougan))
# [2] = molecular target: CitCHS2 (citrus chalcone synthase 2), pGADT7 fusion (Citrus reticulata cv. Suavissima (Ougan))
# [3] = molecular target: CitERF33, split-YFP fusion (BiFC) (Citrus reticulata cv. Suavissima (Ougan))
"k cat value of CitCHS1 for malonyl-CoA with CitCHIL1 against without it (in vitro chalcone synthase assay, purified recombinant proteins) [1]","k cat value of CitCHS1 for p-coumaroyl-CoA with CitCHIL1 against without it (in vitro chalcone synthase assay, purified recombinant proteins) [1]","k cat value of CitCHS2 for malonyl-CoA with CitCHIL1 against without it (in vitro chalcone synthase assay, purified recombinant proteins) [2]","k cat value of CitCHS2 for p-coumaroyl-CoA with CitCHIL1 against without it (in vitro chalcone synthase assay, purified recombinant proteins) [2]","activation of the CitCHIL1 promoter by CitERF33 and CitRAV1 together (dual-luciferase assay in N. benthamiana leaves, LUC/REN against empty vector; 1.6-fold for CitERF33/EV or CitRAV1/EV) [3]",Substance
1.86 fold,1.81 fold,1.33 fold,1.43 fold,,"CitCHIL1 (citrus type IV chalcone isomerase), pGBKT7 fusion (natural protein)"
,,,,10.6 fold,"CitRAV1, split-YFP fusion (BiFC) (natural protein)"
